Source: US20220389118A1 (Chugai, published 2022)
Residue numbers refer to the chain shown, from its start. Numbers in names are those of the source. Read-outs that look alike come from different tables or passages of the source.

How the values were obtained:
[1] = molecular target: T1, human FcγRIIa type R extracellular domain with C-terminal His tag (human, UniProt P12318 34-217); assay: SPR (Biacore)
T1 construct: extracellular domain; also called FcγRIIaR; FcgRIIaR
T1 sequence (looked up): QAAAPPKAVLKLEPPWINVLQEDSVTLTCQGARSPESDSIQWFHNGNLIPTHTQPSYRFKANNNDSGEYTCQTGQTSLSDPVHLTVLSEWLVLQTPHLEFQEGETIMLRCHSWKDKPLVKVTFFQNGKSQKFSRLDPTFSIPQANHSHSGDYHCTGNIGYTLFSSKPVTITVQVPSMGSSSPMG

[2] = molecular target: T2, human FcγRIIIa type V extracellular domain with C-terminal His tag (human, UniProt P08637 17-208); assay: SPR (Biacore)
T2 construct: extracellular domain; also called FcγRIIIaV; FcgRIIIaV
T2 sequence (P08637 17-208 F176V): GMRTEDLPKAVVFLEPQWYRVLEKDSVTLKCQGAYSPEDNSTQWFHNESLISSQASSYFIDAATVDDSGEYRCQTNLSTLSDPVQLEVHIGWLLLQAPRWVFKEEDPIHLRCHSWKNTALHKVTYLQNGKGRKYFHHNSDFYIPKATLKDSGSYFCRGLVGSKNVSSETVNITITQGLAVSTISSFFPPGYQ

[3] = molecular target: T3, human FcγRIIa type R (R131) extracellular domain with C-terminal His tag (human, UniProt P12318 34-217); assay: SPR (Biacore), antibody captured, FcγR analyte
T3 construct: extracellular domain; also called FcγRIIaR; not shown: His tag at the C terminus
T3 sequence (looked up): T1 sequence (looked up)

[4] = molecular target: T4, human FcγRIIIa type V extracellular domain with C-terminal His tag (human, UniProt P08637 17-208); assay: SPR, Ref. Ex. 25
T4 construct: extracellular domain; also called FcγRIIIaV; FcγRIIIa V type
T4 sequence (P08637 17-208 F176V): as above

[5] = molecular target: T5, human FcγRIIa type R extracellular domain with C-terminal His tag (human, UniProt P12318 34-217); assay: SPR, Ref. Ex. 25
T5 construct: extracellular domain; also called FcγRIIaR; FcγRIIa R
T5 sequence (looked up): T1 sequence (looked up)

[6] = molecular target: T6, human FcγRIIb extracellular domain with C-terminal His tag (human, UniProt P31994 43-217); assay: SPR, Ref. Ex. 25
T6 construct: extracellular domain; for crystals expressed with kifunensine and trimmed with Endo F1; also called FcγRIIb extracellular region
T6 sequence (looked up): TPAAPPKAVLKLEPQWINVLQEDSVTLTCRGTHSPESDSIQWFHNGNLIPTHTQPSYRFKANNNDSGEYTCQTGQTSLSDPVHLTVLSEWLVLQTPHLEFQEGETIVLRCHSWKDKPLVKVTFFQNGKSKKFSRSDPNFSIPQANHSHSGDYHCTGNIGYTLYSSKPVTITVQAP

[7] = molecular target: T7, human FcγRIIa type R extracellular domain with C-terminal His tag (human, UniProt P12318 34-217); assay: SPR (Biacore), antibody captured, FcγR as analyte
T7 construct: extracellular domain; also called FcγRIIaR; FcgRIIaR
T7 sequence (looked up): T1 sequence (looked up)

[8] = molecular target: T8, human FcγRIa extracellular domain with C-terminal His tag (human, UniProt P12314 16-292); assay: SPR (Biacore), antibody captured, FcγR as analyte
T8 construct: also called FcgRIa
T8 sequence (P12314 16-292): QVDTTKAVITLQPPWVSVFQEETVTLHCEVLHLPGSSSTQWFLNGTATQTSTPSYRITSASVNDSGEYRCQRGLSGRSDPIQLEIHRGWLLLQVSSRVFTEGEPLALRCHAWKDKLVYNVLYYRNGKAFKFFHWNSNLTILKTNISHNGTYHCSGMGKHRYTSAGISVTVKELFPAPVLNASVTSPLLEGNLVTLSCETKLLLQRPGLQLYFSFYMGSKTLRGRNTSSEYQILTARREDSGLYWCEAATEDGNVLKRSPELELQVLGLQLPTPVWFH

[9] = molecular target: T9, human FcγRIIb extracellular domain with C-terminal His tag (human, UniProt P31994 43-217); assay: SPR (Biacore), antibody captured, FcγR as analyte
T9 construct: extracellular domain; also called FcgRIIb
T9 sequence (looked up): T6 sequence (looked up)

[10] = molecular target: T10, human FcγRIIa type H (allotype H131) extracellular domain with C-terminal His tag (human, UniProt P12318 34-217); assay: SPR (Biacore), antibody captured, FcγR analyte
T10 construct: extracellular domain; also called FcγRIIaH; FcγRIIa H type; not shown: His tag at the C terminus
T10 sequence (looked up): T1 sequence (looked up) with R134H

[11] = molecular target: T11, human FcγRIIIa type V (allotype V158) extracellular domain with C-terminal His tag (human, UniProt P08637 17-208); assay: SPR (Biacore), antibody captured, FcγR analyte
T11 construct: extracellular domain; also called FcγRIIIaV; FcγRIIIa V type; not shown: His tag at the C terminus
T11 sequence (P08637 17-208 F176V): as the sequence (P08637 17-208 F176V) above

[12] = molecular target: T12, human FcγRIIa type H extracellular domain with C-terminal His tag (human, UniProt P12318 34-217); assay: SPR (Biacore)
T12 construct: extracellular domain; also called FcγRIIaH; FcgRIIaH
T12 sequence (looked up): T1 sequence (looked up) with R134H

[13] = molecular target: T13, human FcγRIa extracellular domain with C-terminal His tag (human, UniProt P12314 16-292); assay: SPR (Biacore), antibody captured, FcγR analyte
T13 construct: not shown: His tag at the C terminus
T13 sequence (P12314 16-292): as the sequence (P12314 16-292) above

[14] = molecular target: T14, human FcγRIIb extracellular domain with C-terminal His tag (human, UniProt P31994 43-217); assay: SPR (Biacore), antibody captured, FcγR analyte
T14 construct: extracellular domain; not shown: His tag at the C terminus
T14 sequence (looked up): T6 sequence (looked up)

[15] = molecular target: T15, human FcγRIIb extracellular domain with C-terminal His tag (human, UniProt P31994 43-217); assay: SPR (Biacore), antibody captured, FcγR analyte; remark: listed apart in the source
T15 construct: extracellular domain; not shown: His tag at the C terminus
T15 sequence (looked up): T6 sequence (looked up)

[16] = molecular target: T3, human FcγRIIa type R (R131) …; assay: SPR (Biacore), antibody captured, FcγR analyte; remark: listed apart in the source

B1: IL6R-2B253/IL6R-L (antibody, human IgG1, kappa)
heavy: QVQLQESGPGLVKPSETLSLTCAVSGHSISHDHAWSWVRQPPGEGLEWIGFISYSGITNYNPSLQGRVTISRDNSKNTLYLQMNSLRAEDTAVYYCARSLARTTAMDYWGEGTLVTVSSASTKGPSVFPLAPSSKSTSGGTAALGCLVKDYFPEPVTVSWNSGALTSGVHTFPAVLQSSGLYSLSSVVTVPSSSLGTQTYICNVNHKPSNTKVDKKVEPKSCDKTHTCPPCPAPDLLGGDSVFLFPPKPKDTLMISRTPEVTCVVVDVSHEDPEVKFNWYVDGVEVHNAKTKPREEQYNSTYRVVSVLTVLHQDWLNGKEYKCKMSNKALPAPIEKTISKAKGQPREPQVYTLPPSRDELTKNQVSLTCLVKGFYPSDIAVEWESNGQPENNYKTTPPVLDSDGSFFLYSKLTVDKSRWQQGNVFSCSVMHEALHNHYTQESLSLSP
light: not shown
notes: EU numbering; alterations on IL6R-B3; copies: 2 + 2
Kd [1]: 5 µM
Kd [2]: 50 µM

B2: IL6R-BP474/IL6R-L (antibody, human IgG1, kappa)
heavy: B1 heavy with G239D, H270D, P273G, Y298D, M325V, A332S, P333S
light: not shown
notes: A330S and P331S introduced into IL6R-BP230; copies: 2 + 2
Kd [3]: 3 µM

B3: IL6R-PD042/IL6R-L (antibody, human IgG1, kappa)
heavy: B1 heavy with D235E, L236W, M254Y, M325V, N436Y, E441K
light: not shown
notes: also called P238D/L234W; L234W/P238D; copies: 2 + 2
Kd [4]: 37 µM
Kd [5]: 16 µM
Kd [6]: 2 µM

B4: IL6R-BP119/IL6R-L (antibody, human IgG1, kappa)
heavy: B1 heavy with D235E, M325V, K328M
light: not shown
notes: IgG1 type
Kd [7]: 9.9 µM
Kd [8]: 0.007 µM
KD(IIb) of parent polypeptide/KD(IIb) of altered polypeptide [9]: 2.7 fold vs IL6R-B3/IL6R-L

B5: IL6R-PD079/IL6R-L (antibody, human IgG1, kappa)
heavy: B1 heavy with D235E, G239A, M254Y, M325V, N436Y, E441K
light: not shown
notes: also called P238D/G237A; G237A/P238D; copies: 2 + 2
Kd [4]: 37 µM
Kd [5]: 32 µM
Kd [6]: 3 µM

B6: IL6R-BP234/IL6R-L (antibody, human IgG1, kappa)
heavy: B1 heavy with L236Y, G239D, S269Q, H270D, P273G, Y298D, M325V, K328D, A332K
light: not shown
notes: copies: 2 + 2
Kd [10]: 20 µM

B7: IL6R-BP231/IL6R-L (antibody, human IgG1, kappa)
heavy: B1 heavy with D235E, G239D, H270D, P273G, Y298D, M325V, A332R
light: not shown
notes: copies: 2 + 2
Kd [11]: 40 µM

B8: IL6R-BP132/IL6R-L (antibody, human IgG1, kappa)
heavy: B1 heavy with M325V, K328A, A332K
light: not shown
notes: as for B1
Kd [1]: 8 µM
Kd [12]: 30 µM

B9: IL6R-BP243/IL6R-L (antibody, human IgG1, kappa)
heavy: B1 heavy with L236Y, G239D, H270D, P273G, M325V, A332R
light: not shown
notes: copies: 2 + 2
Kd [13]: 0.003 µM
Kd [10]: 6 µM

B10: IL6R-BP475/IL6R-L (antibody, human IgG1, kappa)
heavy: B1 heavy with G239D, H270D, P273G, Y298D, M325V, A329G, A332S
light: not shown
notes: A327G and A330S introduced into IL6R-BP230; copies: 2 + 2
Kd [3]: 1 µM

B11: IL6R-BP217/IL6R-L (antibody, human IgG1, kappa)
heavy: B1 heavy with D235E, G239D, S269Q, H270D, P273G, Y298D, M325V, A332K
light: not shown
notes: copies: 2 + 2
Kd [11]: 60 µM

B12: IL6R-BP367/IL6R-L (antibody, human IgG1, kappa)
heavy: B1 heavy with G239D, H270E, E271D, P273G, M325V
light: not shown
notes: E269D introduced into IL6R-BP267; copies: 2 + 2
Kd [14]: 0.1 µM

B13: IL6R-BP238/IL6R-L (antibody, human IgG1, kappa)
heavy: B1 heavy with L236Y, G239D, H270D, P273G, Y298D, M325V, K328A, A332R
light: not shown
notes: copies: 2 + 2
Kd [10]: 7 µM

B14: IL6R-PD080/IL6R-L (antibody, human IgG1, kappa)
heavy: B1 heavy with D235E, G239D, M254Y, M325V, N436Y, E441K
light: not shown
notes: also called P238D/G237D; G237D/P238D; copies: 2 + 2
Kd [4]: 43 µM
Kd [5]: 21 µM
Kd [6]: 2 µM

B15: IL6R-BP228/IL6R-L (antibody, human IgG1, kappa)
heavy: B1 heavy with D235E, L236Y, G239D, S269Q, H270D, P273G, M325V, K328D, A332R
light: not shown
notes: copies: 2 + 2
Kd [15]: 0.04 µM

B16: IL6R-BP471/IL6R-L (antibody, human IgG1, kappa)
heavy: B1 heavy with G239D, H270D, P273G, Y298D, M325V, A332R, P333S
light: not shown
notes: P331S introduced into IL6R-BP230; copies: 2 + 2
Kd [3]: 0.8 µM

B17: IL6R-BP241/IL6R-L (antibody, human IgG1, kappa)
heavy: B1 heavy with G239D, H270D, P273G, M325V, K328D, A332R
light: not shown
notes: copies: 2 + 2
Kd [10]: 9 µM

B18: IL6R-BP237/IL6R-L (antibody, human IgG1, kappa)
heavy: B1 heavy with L236Y, G239D, S269Q, H270D, P273G, Y298D, M325V, K328A, A332K
light: not shown
notes: copies: 2 + 2
Kd [15]: 0.1 µM

B19: IL6R-BP085/IL6R-L (antibody, human IgG1, kappa)
heavy: B1 heavy with D235E, G239D, M325V, A332K
light: not shown
notes: as for B1
Kd [1]: 4.2 µM
Kd [2]: 68 µM

B20: IL6R-2B172/IL6R-L (antibody, human IgG1, kappa)
heavy: B1 heavy with D235E
light: not shown
notes: IgG1 type
Kd [7]: 6.1 µM
Kd [8]: 0.003 µM
KD(IIb) of parent polypeptide/KD(IIb) of altered polypeptide [9]: 4 fold vs IL6R-B3/IL6R-L

B21: IL6R-BP517/IL6R-L (antibody, human IgG1, kappa)
heavy: B1 heavy with G239D, H270E, P273G, E274I, M325V
light: not shown
notes: E272I introduced into IL6R-BP267; copies: 2 + 2
Kd [16]: 2.1 µM

B22: IL6R-BP514/IL6R-L (antibody, human IgG1, kappa)
heavy: B1 heavy with G239D, H270E, P273G, E274F, M325V
light: not shown
notes: E272F introduced into IL6R-BP267; copies: 2 + 2
Kd [16]: 3 µM

B23: IL6R-BP350/IL6R-L (antibody, human IgG1, kappa)
heavy: B1 heavy with G239D, S269E, H270E, P273G, M325V
light: not shown
notes: S267E introduced into IL6R-BP267; copies: 2 + 2
Kd [14]: 0.1 µM

B24: IL6R-BP348/IL6R-L (antibody, human IgG1, kappa)
heavy: B1 heavy with G239D, S269A, H270E, P273G, M325V
light: not shown
notes: S267A introduced into IL6R-BP267; copies: 2 + 2
Kd [16]: 0.7 µM

B25: IL6R-BP106/IL6R-L (antibody, human IgG1, kappa)
heavy: B1 heavy with D235E, H270D, M325V
light: not shown
notes: IgG1 type
Kd [7]: 11 µM
Kd [8]: 0.004 µM
KD(IIb) of parent polypeptide/KD(IIb) of altered polypeptide [9]: 3.3 fold vs IL6R-B3/IL6R-L

B26: IL6R-BP520/IL6R-L (antibody, human IgG1, kappa)
heavy: B1 heavy with G239D, H270E, P273G, E274M, M325V
light: not shown
notes: E272M introduced into IL6R-BP267; copies: 2 + 2
Kd [16]: 3 µM

B27: IL6R-BP239/IL6R-L (antibody, human IgG1, kappa)
heavy: B1 heavy with L236Y, G239D, S269Q, H270D, P273G, Y298D, M325V, K328A, A332R
light: not shown
notes: copies: 2 + 2
Kd [15]: 0.06 µM
